Measured values from patent publication US20250027955A1, “ETHYLENE RECEPTORS AND BINDING DOMAINS WITH MODIFIED BINDING KINETICS FOR ETHYLENE” (Trustees of Dartmouth College, priority 2022, published 2025).
Numbering of substitutions follows the chain as printed. Numbers in names are those of the source.

B1: etr1-1: well-characterized ETR1 missense mutation Cys65Tyr; ethylene-insensitive control (protein, UniProt P49333 1-738, looked up, variant C65Y)
Ethylene receptor 1: MEVCNCIEPQWPADELLMKYQYISDFFIAIAYFSIPLELIYFVKKSAVFPYRWVLVQFGAFIVLYGATHLINLWTFTTHSRTVALVMTTAKVLTAVVSCATALMLVHIIPDLLSVKTRELFLKNKAAELDREMGLIRTQEETGRHVRMLTHEIRSTLDRHTILKTTLVELGRTLALEECALWMPTRTGLELQLSYTLRHQHPVEYTVPIQLPVINQVFGTSRAVKISPNSPVARLRPVSGKYMLGEVVAVRVPLLHLSNFQINDWPELSTKRYALMVLMLPSDSARQWHVHELELVEVVADQVAVALSHAAILEESMRARDLLMEQNVALDLARREAETAIRARNDFLAVMNHEMRTPMHAIIALSSLLQETELTPEQRLMVETILKSSNLLATLMNDVLDLSRLEDGSLQLELGTFNLHTLFREVLNLIKPIAVVKKLPITLNLAPDLPEFVVGDEKRLMQIILNIVGNAVKFSKQGSISVTALVTKSDTRAADFFVVPTGSHFYLRVKVKDSGAGINPQDIPKIFTKFAQTQSLATRSSGGSGLGLAISKRFVNLMEGNIWIESDGLGKGCTAIFDVKLGISERSNESKQSGIPKVPAIPRHSNFTGLKVLVMDENGVSRMVTKGLLVHLGCEVTTVSSNEECLRVVSHEHKVVFMDVCMPGVENYQIALRIHEKFTKQRHQRPLLVALSGNTDKSTKEKCMSFGLDGVLLKPVSLDNIRDVLSDLLEPRVLYEGM
B2: ETR1^D25N: ETR1 with site-directed mutation Asp25Asn, carboxylic acid changed to carboxamide (protein, UniProt P49333 1-738, looked up, variant D25N)
Ethylene receptor 1: B1 Ethylene receptor 1 with D25N, Y65C

What was measured:
[1] = tested on: Arabidopsis seedlings, etr1 etr2 ein4 ers1 ers2 background; test: Ethylene and 1-MCP response of ETR1^D25N lines lacking all five native ethylene receptors; type: in vivo; conditions: 1 μM ethylene
ETR1 = ETR1 (Arabidopsis thaliana, UniProt P49333); conditions: read-out: calculated dissociation constant (Kd); ethylene binding to ETR1; cited from earlier work
plants = conditions: in vivo; cited from earlier work
[2] = tested on: dark-grown Arabidopsis seedlings; test: Silver sensitivity assay: effect of silver on ethylene response of dark-grown seedlings; type: in vivo; conditions: transgene in etr1 etr2 ein4 background, 10 μL/L ethylene
From the text: As an initial test for the feasibility of the first hypothesis, Applicant asked if ETR1^D25N could still bind a metal cofactor, and therefore potentially ethylene, in planta. For this purpose, Applicant examined the effects of silver (Ag) on ethylene sensitivity. Silver is thought to substitute for the copper cofactor and, although receptors containing silver can still bind ethylene, they no longer transmit the signal, resulting in ethylene insensitivity.

[3] = tested on: OSR1, ERF1, EXP5 and EXPb1 expression; test: Ethylene-dependent gene expression by RT-qPCR; type: in vivo, Arabidopsis; conditions: 0 or 1 μL L^−1 ethylene for 2 hr
Procedure: To examine the short-term molecular response, Applicant characterized ethylene-dependent gene expression for the ETR1 Asp25 mutants (FIG. 6B). Expression of OSR1 and ERF1 is induced, whereas the expression of EXP5 and EXPb1 is repressed, in response to ethylene.
RNA isolation and RT-qPCR was performed with three biological replicates and two technical replicates of each.

[4] = Copper binding assay: purified ETR1 transmembrane domain titrated to BCA2-Cu(I) complex, absorbance at 562 nm; conditions: ETR1-TMD expressed and purified from E. coli; Cu(I) stabilized by BCA
From the text: Cu(I) was stabilized by the copper chelator BCA, and then titrated with increasing ETR1 protein concentration.
Titration curves were corrected for nonspecific binding observed with chemically and thermally denatured receptor to maximize signal to background levels.

[5] = Saturable [14C]ethylene binding to yeast transgenically expressing ETR1; set-up: species or system Saccharomyces cerevisiae; conditions: for saturable [14C]ethylene binding: 0.21 μL L^−1 [14C]ethylene, with or without excess [12C]ethylene
From the text: Saturable ethylene binding of the ETR1 Asp25 mutants was examined by heterologous expression in yeast, with binding to [^14C]ethylene determined in the presence or absence of excess [^12C]ethylene (FIG. 2C). […] This included the ETR1^D25A mutant, consistent with previous observations, as well as for the ETR1^D25N and ETR1^D25Q mutants (FIG. 2C). Results from the ethylene binding assay are therefore consistent with the negative charge at D25 playing a significant role in mediating high-affinity ethylene binding.
[^14C]ethylene (specific activity=116 mCi/mmol) was obtained from ViTrax Radiochemicals (Placentia, CA) and trapped as the mercuric perchlorate complex as described. For ethylene binding assays in yeast, ETR1 was expressed in the yeast Saccharomyces cerevisiae (strain FY834) using the vector pYcDE-2 and a constitutive ADC1 promoter. The yeast growth media was supplemented with 40 μg L^−1 copper sulfate. Saturable ethylene binding to yeast was determined by analyzing binding of 0.3 g yeast per sample to 0.21 μL L^−1 [^14C]ethylene, in the presence or absence of excess [^12C]ethylene.

[6] = tested on: Arabidopsis seedlings, etr1 etr2 ein4 background; test: Triple-response hypocotyl growth assay of dark-grown seedlings expressing ETR1 transgenes; type: in vivo; conditions: for rescue of growth of etr1 etr2 ein4 triple mutant in air: absence of ethylene, hypocotyl and adult shoot growth
Procedure: Functionality of the ETR1 Asp25 mutants was tested by transgenic expression in the etr1 etr2 ein4 Arabidopsis background.
Applicant can thus exploit the triple mutant to assess the ability of the ETR1 transgenes to rescue growth in the absence of ethylene as well as their ability to mediate a response to ethylene. Such an analysis indicates whether the encoded receptors are able to assume the ‘on’ conformation that represses the ethylene response in air, as well as the ‘off’ conformation that occurs in response to ethylene binding.
(§1) All Arabidopsis lines were of the Columbia (Col-0) accession. The etr1-1 and etr1-6 etr2-3 ein4-4 mutant lines have been described. Analysis of the triple response of dark-grown Arabidopsis seedlings to ethylene was performed as described previously. Briefly, seedlings were grown at 22° C. on vertically oriented plates on half-strength Murashige and Skoog basal medium with Gamborg's vitamins (pH 5.75; Sigma), 0.8% (w/v) agar, and 5 μM aminoethoxyvinylglycine (AVG) to inhibit ethylene biosynthesis. The stratified seed was exposed to light for 8 hr and then moved to the dark in the presence or absence of ethylene, with analysis of the seedling growth being performed following 4 days total growth. For short-term kinetic analysis of dark-grown seedlings, time-lapse imaging and growth rate analysis of hypocotyls were carried out as described previously.

[7] = Saturable [14C]ethylene binding of Arabidopsis seedlings (in planta); conditions: two-week-old green seedlings, 0.31 μL L^−1 [14C]ethylene, 5 μM AVG
Procedure: [^14C]ethylene binding was examined in two-week-old green seedlings grown on media containing 5 μM aminoethoxyvinylglycine (AVG) to inhibit ethylene biosynthesis.
For ethylene binding assays with Arabidopsis seedlings, two-week-old green seedlings were used that had been grown on media containing 5 μl M AVG to inhibit ethylene biosynthesis, with ˜1 g seedlings per sample. The fresh weight of seedlings was determined, and each sample packaged into bags formed from a layer of cheese cloth and stapled at the top. Humidity was maintained in the ethylene binding chambers by use of moistened paper towels. Saturable ethylene binding was determined by analyzing binding to 0.31 μL L^−1 [^14C]ethylene, in the presence or absence of excess [^12C]ethylene.

[8] = tested on: Arabidopsis seedlings, etr1 etr2 ein4 background; test: Short-term kinetic analysis of hypocotyl growth response to ethylene; type: in vivo; conditions: for short-term hypocotyl growth response to ethylene: 10 μL/L ethylene for 2 hr; for growth recovery upon ethylene removal: after 2 hr of 10 μL/L ethylene, 5-hr recovery in air
Procedure: Based on the differences Applicant uncovered for the long-term ethylene growth responses for the Asp25 mutants, Applicant also analyzed their short-term hypocotyl growth and molecular responses to ethylene. To this end, Applicant performed a short-term kinetic analysis, analyzing the initial hypocotyl growth inhibition in response to 10 μL/L ethylene and the growth recovery following the removal of ethylene after two hours of treatment (FIG. 6A).
as §1

[9] = previously reported; cited from earlier work
[10] = previously reported; cited from earlier work; remark: listed apart in the source
[11] = tested on: Arabidopsis seedlings, etr1 etr2 ein4 background; conditions: previously reported; cited from earlier work

Chain of ETR1 (P49333 whole entry): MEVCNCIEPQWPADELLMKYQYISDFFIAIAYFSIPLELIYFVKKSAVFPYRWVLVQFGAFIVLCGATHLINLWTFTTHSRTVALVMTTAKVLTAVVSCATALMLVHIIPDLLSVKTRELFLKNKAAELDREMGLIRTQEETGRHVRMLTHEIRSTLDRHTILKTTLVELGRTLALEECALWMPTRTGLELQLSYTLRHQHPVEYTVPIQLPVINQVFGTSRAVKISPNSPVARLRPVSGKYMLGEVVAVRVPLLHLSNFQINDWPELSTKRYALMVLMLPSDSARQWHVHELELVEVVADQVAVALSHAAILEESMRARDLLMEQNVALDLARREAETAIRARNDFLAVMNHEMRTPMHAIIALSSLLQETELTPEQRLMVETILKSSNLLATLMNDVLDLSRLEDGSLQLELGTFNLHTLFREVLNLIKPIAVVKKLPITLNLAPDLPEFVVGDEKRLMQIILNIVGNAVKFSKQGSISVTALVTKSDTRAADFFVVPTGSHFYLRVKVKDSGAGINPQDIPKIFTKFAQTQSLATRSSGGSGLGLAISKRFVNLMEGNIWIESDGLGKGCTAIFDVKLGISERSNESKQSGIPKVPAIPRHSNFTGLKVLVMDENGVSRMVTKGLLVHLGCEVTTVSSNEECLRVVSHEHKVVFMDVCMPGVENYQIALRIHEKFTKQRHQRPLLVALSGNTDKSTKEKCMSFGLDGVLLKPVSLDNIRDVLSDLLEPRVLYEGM

Molecule	ability of silver to block the ethylene response in transgene lines [2]	molecular response to ethylene (ethylene-dependent gene expression) [3]	copper binding [4]	saturable [14C]ethylene binding [5]	rescue of growth of etr1 etr2 ein4 triple mutant in air [6]	ethylene binding in planta versus etr1 etr2 ein4 basal level [7]	short-term hypocotyl growth response to ethylene [8]	growth recovery upon ethylene removal [8]	also measured
CC1=CC1 [1-methylcyclopropene, reference compound]	–	–	–	–	–	–	–	–	effect of 1-MCP on ethylene response ([1]; ETR1^D25N (etr1 etr2 ein4 ers1 ers2) lines, 1 μM 1-MCP): blocked
C=C [Ethylene, ethylene]	–	–	–	–	–	–	–	–	Kd (ETR1): 2.4 nM; ethylene concentration plants respond to (as low as) (plants): 0.2 nL L^−1
ETR1^wt: wild-type ethylene receptor ETR1 of Arabidopsis	restores the ability of silver to block the ethylene response	consistent with what is observed in the wild-type control	copper binding	Saturable binding	rescued growth	significant increase in ethylene binding	rapid growth response to ethylene	growth recovery intermediate between that exhibited by the wild-type and the etr1 etr2 ein4 seedlings	–
B1	–	–	–	–	–	–	–	–	copper cofactor binding (previous studies) [9]: no longer binds the copper cofactor; ethylene binding (previous studies) [10]: no longer binds ethylene; ethylene sensitivity of plants (previous studies) [11]: confers dominant ethylene insensitivity
B2	restores the ability of silver to block the ethylene response	consistent with what is observed in the wild-type control	minimal residual binding	No saturable [^14C]ethylene binding was detected	rescued growth	no increase in ethylene binding	rapid growth response to ethylene	growth recovery intermediate between that exhibited by the wild-type and the etr1 etr2 ein4 seedlings	response to ethylene without other native receptors ([1]; etr1 etr2 ein4 ers1 ers2 lines #11 and #15): still responded to ethylene; koff increase ([5]; relative to ETR1^wt, suggested by inability to detect [14C]ethylene binding): at least 100 fold; hypocotyl growth response to ethylene ([6]; dark-grown seedlings, 0 or 1 μL L^−1 ethylene): rescued the hypocotyl growth response to ethylene to the same degree as ETR1^wt
